In patent US20250283871A1, “COMPOSITIONS AND METHODS FOR MODULATING THE INTERACTION BETWEEN SS18-SSX FUSION ONCOPROTEIN AND NUCLEOSOMES” (Dana-Farber Cancer Institute, Inc., priority 2020, published 2025):

Tests used:
[1] = target: SMRC1_HUMAN SWI/SNF complex subunit SMARCC1 (human) (UniProt Q92922); assay: MS of BAF complexes from Aska-SS cells, shControl against shSS18-SSX, Rep 2
[2] = target: BCL7C_HUMAN Isoform 2 of B-cell CLL/lymphoma 7 protein family member C (human) (UniProt Q8WUZ0); assay: as above
[3] = target: ARI1B_HUMAN Isoform 3 of AT-rich interactive domain-containing protein 1B (human) (UniProt Q8NFD5); assay: as above
[4] = target: SNF5_HUMAN Isoform B of SWI/SNF-related matrix-associated actin-dependent regulator of chromatin subfamily B member 1 (human) (UniProt Q12824); assay: as above
SSX1; SSX8 (human) [5] = target: SSX1; SSX8 (human) (UniProt Q16384); assay: as above
[6] = target: ACL6A_HUMAN Actin-like protein 6A (human) (UniProt O96019); assay: as above
[7] = target: SSXT_HUMAN Protein SSXT (human) (UniProt Q15532); assay: as above
BCL7B (human) [8] = target: BCL7B (human) (UniProt Q9BQE9); assay: as above
[9] = target: SMRD1_HUMAN SWI/SNF-related matrix-associated actin-dependent regulator of chromatin subfamily D member 1 (human) (UniProt Q96GM5); assay: as above
[10] = target: SMCE1_HUMAN SWI/SNF-related matrix-associated actin-dependent regulator of chromatin subfamily E member 1 (human) (UniProt Q969G3); assay: as above
[11] = target: SMRC1_HUMAN SWI/SNF complex subunit SMARCC1 (human) (UniProt Q92922); assay: MS of BAF complexes from Aska-SS cells, shControl against shSS18-SSX, Rep 1
[12] = target: BCL7C_HUMAN Isoform 2 of B-cell CLL/lymphoma 7 protein family member C (human) (UniProt Q8WUZ0); assay: as above
[13] = target: ARI1B_HUMAN Isoform 3 of AT-rich interactive domain-containing protein 1B (human) (UniProt Q8NFD5); assay: as above
[14] = target: SNF5_HUMAN Isoform B of SWI/SNF-related matrix-associated actin-dependent regulator of chromatin subfamily B member 1 (human) (UniProt Q12824); assay: as above
SSX1; SSX8 (human) [15] = target: SSX1; SSX8 (human) (UniProt Q16384); assay: as above
[16] = target: ACL6A_HUMAN Actin-like protein 6A (human) (UniProt O96019); assay: as above
[17] = target: SSXT_HUMAN Protein SSXT (human) (UniProt Q15532); assay: as above
BCL7B (human) [18] = target: BCL7B (human) (UniProt Q9BQE9); assay: as above
[19] = target: SMRD1_HUMAN SWI/SNF-related matrix-associated actin-dependent regulator of chromatin subfamily D member 1 (human) (UniProt Q96GM5); assay: as above
[20] = target: SMCE1_HUMAN SWI/SNF-related matrix-associated actin-dependent regulator of chromatin subfamily E member 1 (human) (UniProt Q969G3); assay: as above
[21] = target: TNR6B_HUMAN Trinucleotide repeat-containing gene 6B protein (human) (UniProt Q9UPQ9); assay: anti-SMARCA4 (BRG1) IP, mass spectrometry, Aska-SS cells
[22] = target: ZN326_HUMAN DBIRD complex subunit ZNF326 (human) (UniProt Q5BKZ1); assay: as above
[23] = target: UBP2L_HUMAN Isoform 5 of Ubiquitin-associated protein 2-like (human) (UniProt Q14157); assay: as above
[24] = target: XRN2_HUMAN 5'-3' exoribonuclease 2 (human) (UniProt Q9H0D6); assay: as above
[25] = target: ZC11A_HUMAN Zinc finger CCCH domain-containing protein 11A (human) (UniProt O75152); assay: as above
[26] = target: UCRIL HUMAN Putative cytochrome b-c1 complex subunit Rieske-like protein 1 (human) (UniProt P0C7P4); assay: as above
[27] = target: URB2_HUMAN Unhealthy ribosome biogenesis protein 2 homolog (human) (UniProt Q14146); assay: as above
[28] = target: UBC_HUMAN Polyubiquitin-C (human) (UniProt P0CG48); assay: as above
[29] = target: TSP1_HUMAN Thrombospondin-1 (human) (UniProt P07996); assay: as above

LFQ intensity ratio Aska (shControl)/Aska (shSS18-SSX), norm to SMARCA4 [1]: 0.622
LFQ intensity ratio Aska (shControl)/Aska (shSS18-SSX), norm to SMARCA4 [2]: 1.54
LFQ intensity ratio Aska (shControl)/Aska (shSS18-SSX), norm to SMARCA4 [3]: 0.65
LFQ intensity ratio Aska (shControl)/Aska (shSS18-SSX), norm to SMARCA4 [4]: 0.0637
LFQ intensity ratio Aska (shControl)/Aska (shSS18-SSX), norm to SMARCA4 (SSX1; SSX8 (human) [5]): 66.8
LFQ intensity ratio Aska (shControl)/Aska (shSS18-SSX), norm to SMARCA4 [6]: 1.1
LFQ intensity ratio Aska (shControl)/Aska (shSS18-SSX), norm to SMARCA4 [7]: 1.26
LFQ intensity ratio Aska (shControl)/Aska (shSS18-SSX), norm to SMARCA4 (BCL7B (human) [8]): 1.13
LFQ intensity ratio Aska (shControl)/Aska (shSS18-SSX), norm to SMARCA4 [9]: 0.95
LFQ intensity ratio Aska (shControl)/Aska (shSS18-SSX), norm to SMARCA4 [10]: 0.855
LFQ intensity ratio Aska (shControl)/Aska (shSS18-SSX), norm to SMARCA4 [11]: 0.506
LFQ intensity ratio Aska (shControl)/Aska (shSS18-SSX), norm to SMARCA4 [12]: 1.74
LFQ intensity ratio Aska (shControl)/Aska (shSS18-SSX), norm to SMARCA4 [13]: 0.721
LFQ intensity ratio Aska (shControl)/Aska (shSS18-SSX), norm to SMARCA4 [14]: 0.0221
LFQ intensity ratio Aska (shControl)/Aska (shSS18-SSX), norm to SMARCA4 (SSX1; SSX8 (human) [15]): 8.69
LFQ intensity ratio Aska (shControl)/Aska (shSS18-SSX), norm to SMARCA4 [16]: 0.784
LFQ intensity ratio Aska (shControl)/Aska (shSS18-SSX), norm to SMARCA4 [17]: 0.959
LFQ intensity ratio Aska (shControl)/Aska (shSS18-SSX), norm to SMARCA4 (BCL7B (human) [18]): 1.34
LFQ intensity ratio Aska (shControl)/Aska (shSS18-SSX), norm to SMARCA4 [19]: 0.771
LFQ intensity ratio Aska (shControl)/Aska (shSS18-SSX), norm to SMARCA4 [20]: 0.894
NSAF [21]: 0
NSAF [22]: 0
NSAF [23]: 0
NSAF [24]: 0
NSAF [25]: 0
NSAF [26]: 0
NSAF [27]: 0
NSAF [28]: 0
NSAF [29]: 0
Substance: SMCA4_HUMAN Transcription activator BRG1 (from UniProt P51532 1-1647) (enzyme)
